# Biological target: protein kinase CK2 catalytic subunit α (human) (UniProt P68400)
# Sequence (P68400 whole entry): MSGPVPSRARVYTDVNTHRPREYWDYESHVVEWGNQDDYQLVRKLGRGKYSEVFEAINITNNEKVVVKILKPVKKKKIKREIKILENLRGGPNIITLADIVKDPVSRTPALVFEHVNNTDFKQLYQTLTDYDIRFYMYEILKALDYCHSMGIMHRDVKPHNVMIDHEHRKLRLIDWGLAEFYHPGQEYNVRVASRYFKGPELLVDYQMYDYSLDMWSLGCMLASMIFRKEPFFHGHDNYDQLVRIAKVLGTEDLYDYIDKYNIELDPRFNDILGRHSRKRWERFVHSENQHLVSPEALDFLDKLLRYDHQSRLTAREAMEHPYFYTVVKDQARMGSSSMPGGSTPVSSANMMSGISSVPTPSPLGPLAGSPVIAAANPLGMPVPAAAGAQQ
# Sequence of β-peptide(181–203) (P67870 181-203): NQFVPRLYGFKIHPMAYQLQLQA
substance,measurement,value
β-peptide(181–203) (from UniProt P67870 181-203),Kd,8.45 µM

# From paper PMC3026963
